In patent publication CN1737011A (SHANGHAI MEI EN BIO TECH CO LT, dated 2006) one finds Ka data, which are given here for one molecule.

For this assay, the target named is HLA-DR10抗原 (on live Raji cells, Burkitt's lymphoma, ATCC CCL-86) (human). As to the kind of experiment: radioimmunoassay with 131I-labelled antibody (5-110 ng/ml) on 10^6 live Raji cells, Scatchard plot, Ka = -(slope/n), n = 2.

B1: 抗HLA-DR10的特异性嵌合单克隆抗体 (131I标记, 131I-HLA-DR10) (antibody, V domains shown)
VH: QVQLKESGPGLVAPSQSLSITCTISGFSLTSYGVHWVRQPPGKGLEWLVVIWSDGSTTYNSALKSRLSISKDNSKSQVFLKMNSLQTDDTAIYYCASHYGSTLAFASWGHGTLVTVSA
VL: DIQMTQSPASLSASVGETVTIICRASVNIYSYLAWYQQKQGKSPQLLVYNAKILAEGVPSRFSGSGSGTQFSLKINSLQPEDFGSYYCQHHYGTFTFGSGTKLEIK
modifications: 131I label by the chloramine-T method; labelled residues not stated
notes: Mouse/human chimeric IgG1 kappa made in NS0-clym cells (CCTCC C200405); also called HLA-DR10单抗; chLym抗体; not shown: human immunoglobulin gamma-1 heavy chain constant region (from plasmid pSK-γ1); human immunoglobulin kappa light chain constant region (from plasmid pSK-κ)
Consider B1, for which the Ka turned out to be 3.36e+08 M⁻¹.
